Assay results as given in the RNAGym collection of RNA variant scans (doi:10.1073/pnas.2313332121).
This sample holds only a part of the variants without activity.

B1: TPR 5TU (parent)
chain: GGAUCUUCUCGAUCUAACAAAAAAGACAAAUCUGCCACAAAGCUUGAGAGCAUCUUCGGAUGCAGAGGCGGCAGCCUUCGGUGGCGCGAUAGCGCCAACGUUCUCAACUAUGACACGCAAAACGCGUGCUCCGUUGAAUGGAGUUUAUCAUG

Variants of: B1
Experiment: polymerase ribozyme fitness, log enrichment relative to wild type (log ratio); higher = more active; in vitro selection for triplet polymerase activity
How it was run: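 After PCR construction and transcription, each subunit's mutant library from a heterodimeric triplet polymerase ribozyme was annealed with a biotinylated primer, the partner subunit and triplets. Incubation was frozen, at −7 °C, and extended constructs were gel-excised, bound to streptavidin beads and amplified by RT-PCR, in one selection round done in triplicate. Fitness is the logarithm of a genotype's enrichment divided by that of the wild type, from inverse-variance-weighted replicate averages of Illumina-sequenced inputs and outputs. The base of the logarithm is 2, and genotypes needed ≥10 input reads and ≥1 read per output.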

U9C A24U A41G C75U G83A G84A C93A and U6G U45A C57U G67C C95G C99U cannot be ordered by “polymerase ribozyme fitness (log ratio)” value: no more than -4.2 for the first, no more than -4.2 for the second.

Going from C8U U33A C38U G62A to U7G A20C U56G U146G, the “polymerase ribozyme fitness (log ratio)” value rises from no more than -4.2 to -3.82.

U7C G50A A66G and U7A A22C A28C A60C G92A G143C A147G cannot be ordered by “polymerase ribozyme fitness (log ratio)” value: no more than -4.2 for the first, no more than -4.2 for the second.

C8A C35G C51U G59A A73G C76A C85G A138U U151C and C8A C14U A16U U33G A47U C57A C93A A142U cannot be ordered by “polymerase ribozyme fitness (log ratio)” value: no more than -4.2 for the first, no more than -4.2 for the second.

U6G A16U C18U G67C G88C and U7C G25U U31C G62C C75U G117U A122G cannot be ordered by “polymerase ribozyme fitness (log ratio)” value: no more than -4.2 for the first, no more than -4.2 for the second.

C8G A29U A41G U61A G68A U82C A89G C116U and C8A C32A G62A U82G G143A cannot be ordered by “polymerase ribozyme fitness (log ratio)” value: no more than -4.2 for the first, no more than -4.2 for the second.

Compared with U6G G50U C85U C116U G152U, U7G A19C A40G U56A A120G A150C is lower in “polymerase ribozyme fitness (log ratio)” value: -3.7 for the first, no more than -4.2 for the second.

C8U U13A A40C U44G C93G and U7A A29U A49C U53A G84C U102C cannot be ordered by “polymerase ribozyme fitness (log ratio)” value: no more than -4.2 for the first, no more than -4.2 for the second.

U6G A28U A41G G88C G143A U144C U146G and U6G U13G A41U A52C G133U A138G U148G cannot be ordered by “polymerase ribozyme fitness (log ratio)” value: no more than -4.2 for the first, no more than -4.2 for the second.

C8G A41U U55G U56A G65A G70C U78A G81A C93A A122U and U7G C27U G48C G59C C76U C79A G83U C93A cannot be ordered by “polymerase ribozyme fitness (log ratio)” value: no more than -4.2 for the first, no more than -4.2 for the second.

Compared with C8U A49U A52G, C8U C95U is higher in “polymerase ribozyme fitness (log ratio)” value: -3.79 for the first, -2.24 for the second.

U7C U45G G83C G128U C132G A147C and U7C A23G A49U U56G G84U G86U A137U cannot be ordered by “polymerase ribozyme fitness (log ratio)” value: no more than -4.2 for the first, no more than -4.2 for the second.

U9C A37U G92A U102G C108U and U7G A26U U56G G59C G83A C96U A138C cannot be ordered by “polymerase ribozyme fitness (log ratio)” value: no more than -4.2 for the first, no more than -4.2 for the second.

Compared with U6G A23G U144G, C8U G74U C79U C93A G143U is lower in “polymerase ribozyme fitness (log ratio)” value: -3.95 for the first, no more than -4.2 for the second.

C8G G50A A66C G84A and C8A G34C U45A G50A U55A G74A A91G U102G G140C G141A cannot be ordered by “polymerase ribozyme fitness (log ratio)” value: no more than -4.2 for the first, no more than -4.2 for the second.

First: C8G G84A
Second: C8A U15G C95U A98G C149U A150U
The “polymerase ribozyme fitness (log ratio)” value of the first is higher: -3.43 for the first, -4.06 for the second.

Compared with C8U C87A, C8U C54A is higher in “polymerase ribozyme fitness (log ratio)” value: no more than -4.2 for the first, -3.8 for the second.

U9A U15G G50C G94A U135C G143A and U7C C27G C96U cannot be ordered by “polymerase ribozyme fitness (log ratio)” value: no more than -4.2 for the first, no more than -4.2 for the second.

Going from U6C G124C C129A to U6G G11C C14U C93A, the “polymerase ribozyme fitness (log ratio)” value falls from -4.16 to no more than -4.2.

First: C8A G42U G50A G74U C95U
Second: C8G C87U
The “polymerase ribozyme fitness (log ratio)” value of the first is lower: no more than -4.2 for the first, -3.36 for the second.

C8A A22U A41C C93A G136C and U7A C18A U33G A66U G84A G100A G124C cannot be ordered by “polymerase ribozyme fitness (log ratio)” value: no more than -4.2 for the first, no more than -4.2 for the second.

Going from U9A A21U to U7G G141C, the “polymerase ribozyme fitness (log ratio)” value rises from -3.81 to -3.41.

First: U7C C8G A30C C85G U134A
Second: C8A C85A
The “polymerase ribozyme fitness (log ratio)” value of the first is lower: no more than -4.2 for the first, -3.27 for the second.

U7C C18G G25C A28U C38G U55A G70C G94C and C8U A52U U56A U61A C75U C93U C99G C132G cannot be ordered by “polymerase ribozyme fitness (log ratio)” value: no more than -4.2 for the first, no more than -4.2 for the second.

First: C8A G83U U90G C118A
Second: U6G C51A G83C
The “polymerase ribozyme fitness (log ratio)” value of the first is lower: no more than -4.2 for the first, -2.97 for the second.

U9C A17C C54U A120G and U9A C149G cannot be ordered by “polymerase ribozyme fitness (log ratio)” value: no more than -4.2 for the first, no more than -4.2 for the second.

C8A C116U U135C A150G and U7A A29C A60U C76G C95U G133A G141A cannot be ordered by “polymerase ribozyme fitness (log ratio)” value: no more than -4.2 for the first, no more than -4.2 for the second.

Going from C8U C10A A23C G59U G88U to U7A G58C, the “polymerase ribozyme fitness (log ratio)” value rises from no more than -4.2 to -3.68.

U6G C79A G84C G152A and C8A C114G A142C cannot be ordered by “polymerase ribozyme fitness (log ratio)” value: no more than -4.2 for the first, no more than -4.2 for the second.

U7G A12C C51G A64C C123U C132G and C8U A22U A37C C57G C99A U148A G152A cannot be ordered by “polymerase ribozyme fitness (log ratio)” value: no more than -4.2 for the first, no more than -4.2 for the second.

U9A A28G A41C A64U G80U C87A C95U C131G and U9A C87A cannot be ordered by “polymerase ribozyme fitness (log ratio)” value: no more than -4.2 for the first, no more than -4.2 for the second.

C8A A22C C35U G48C A73U and U9A C38A C72A G84A C125U cannot be ordered by “polymerase ribozyme fitness (log ratio)” value: no more than -4.2 for the first, no more than -4.2 for the second.

U7A A110C A138U and U7C U53G G86C A106G A150C cannot be ordered by “polymerase ribozyme fitness (log ratio)” value: no more than -4.2 for the first, no more than -4.2 for the second.

Compared with U7G A60G, C8G A52G C57U G80C U104G U148G is lower in “polymerase ribozyme fitness (log ratio)” value: -2.7 for the first, no more than -4.2 for the second.

U7G A22U C43U C93A A142G and U7A A26U C32G A49C G50A G83U cannot be ordered by “polymerase ribozyme fitness (log ratio)” value: no more than -4.2 for the first, no more than -4.2 for the second.

C8A A12G A41C A47G U53A G143U U151C and U7C G50U C87A U90A A106C cannot be ordered by “polymerase ribozyme fitness (log ratio)” value: no more than -4.2 for the first, no more than -4.2 for the second.

First: C8A C32G A47U C54G G92U
Second: U6G A21C G152A
The “polymerase ribozyme fitness (log ratio)” value of the first is lower: no more than -4.2 for the first, -2.84 for the second.

Going from C8G C32U G80U to U7G G48A G59A A60G A97G, the “polymerase ribozyme fitness (log ratio)” value rises from -4.14 to -3.81.

First: U6C G117C
Second: U6G C18G C36U C96G A98G
The “polymerase ribozyme fitness (log ratio)” value of the first is higher: -0.247 for the first, -2.92 for the second.

U6G A20C A22G A26C C57A C87A A120G and C8U C35U A41C G58C G68U G86U C114A G140A cannot be ordered by “polymerase ribozyme fitness (log ratio)” value: no more than -4.2 for the first, no more than -4.2 for the second.

Going from U6G U33C U77C G80C C85G G86A G112U A120G U151C to C8G U15C A52G C57G G59U C87G, the “polymerase ribozyme fitness (log ratio)” value rises from no more than -4.2 to -3.95.

In the case of C8A A17U U55A G81C C87A A91U U144C U145C, the “polymerase ribozyme fitness (log ratio)” value is reported as no more than -4.2.
